Laboratory results as given in patent US20160311870A1 (SWEDISH ORPHAN BIOVITRUM AB PUBL, published 2016).

Biological target: T1, human complement component 5 (C5) (human, UniProt P01031 19-673; P01031 678-1676)
T1 construct: Bought human C5 (Quidel Cat #403 / A403); also called human C5; hC5
Assay: BLI (ForteBio), compound captured on HSA sensor, human C5 in solution
Experimental: Human serum albumin was immobilized to Amine Reactive 2nd generation (AR2G) Dip and Read Biosensors (Pall Life sciences (ForteBio) Cat #18-5092) by amine coupling. […] Regeneration conditions for the sensors were 10 mM Glycine, pH 2 (three pulses with 30 seconds and running buffer for 60 seconds). Each spectrogram was reference subtracted against an analogous construct containing an albumin binding domain (SEQ ID NO: 250) but without the C5 binding capacity. The data were analyzed according to Langmuir 1:1 model using ForteBio Analysis 7.1 (Pall Life sciences (ForteBio) kinetics software).

B1: PSI0383 (designed binder)
chain: AEAKYAKEVLEAWDEIDRLPNLTIEQWLAFINKLDRQPEQSSELLSEAKKLSESQAPKVEGSLAEAKEAANAELDSYGVSDFYKRLIDKAKTVEGVEALKDAILAALP
notes: N52S, D53E, D60E and loop changes D36R, D37Q, S39E against PSI0242
With B1 the “Rel. KD (KD relative to PSI0242)” value was 2.1.
